One protein from patent US20170000909 can be followed below.

The target in series [1] is T1, M1 micelle of fluorescein labelled PPA-1 (not fully specified).
T1 chain: GPLGLAGKWAAAAKAAAAK

Another series has as its target T2, Peptide 1.
T2 chain: GPLGLAGKWAAAAKAAAAK

A further series addresses T3, M4 micelle.
T3 chain: GPLGLAGKWAAAAKAAAAK

B1: matrix-metalloproteinase 9 (protein)
chain: MRTPRCGVPDLGRFQTFEGDLKWHHHNITYWIQNYSEDLPRAVIDDAFARAFALWSAVTPLTFTRVYSRDADIVIQFGVAEHGDGYPFDGKDGLLAHAFPPGPGIQGDAHFDDDELWSLGKGVVVPTRFGNADGAACHFPFIFEGRSYSACTTDGRSDGLPWCSTTANYDTDDRFGFCPSERLYTQDGNADGKPCQFPFIFQGQSYSACTTDGRSDGYRWCATTANYDRDKLFGFCPTRADSTVMGGNSAGELCVFPFTFLGKEYSTCTSEGRGDGRLWCATTSNFDSDKKWGFCPDQGYSLFLVAAHEFGHALGLDHSSVPEALMYPMYRFTEGPPLHKDDVNGIRHLYGPRPEPEPRPPTTTTPQPTAPPTVCPTGPPTVHPSERPTAGPTGPPSAGPTGPPTAGPSTATTVPLSPVDDACNVNIFDAIAEIGNQLYLFKDGKYWRFSEGRGSRPQGPFLIADKWPALPRKLDSVFEERLSKKLFFFSGRQVWVYTGASVLGPRRLDKLGLGADVAQVTGALRSGRGKMLLFSGRRLWRFDVKAQMVDPRSASEVDRMFPGVPLDTHDVFQYREKAYFCQDRFYWRVSSRSELNQVDQVGYVTYDILQCPED
As to B1, the “MMP-9 cleavage efficiency (RP-HPLC after 24 hrs)” value in series [1] is “estimated to be 41%”; with Peptide 1 it was “quantitative”. Moreover, in the series with M4 micelle, the “Michaelis-Menten kinetics (Kcat and KM) from fluorescein signal increase upon cleavage of the Dabcyl label” value is given as “this substrate for MMP-9 is comparable to standard substrate”.
